This data set has as its target Sp3 (UniProt Q02447 1-781). Kind of data set: EMSA; 5 mM MgCl2; 10 mM Tris pH 7.5, 50 mM KCl, 1 mM DTT, 75 ng/ul poly(dI-dC), 0.25 mg/ml BSA, 40 fmol probe, 1 ug protein, 20 min room temperature; Sp3 buffer plus 5% glycerol, 5 mM MgCl2, 0.025% NP-40; 6% PAGE in 0.5x TBE. The following applies: protein: commercial; label: 5'-biotin on both strands; blunt.

Sp3, sequence (Q02447 whole entry): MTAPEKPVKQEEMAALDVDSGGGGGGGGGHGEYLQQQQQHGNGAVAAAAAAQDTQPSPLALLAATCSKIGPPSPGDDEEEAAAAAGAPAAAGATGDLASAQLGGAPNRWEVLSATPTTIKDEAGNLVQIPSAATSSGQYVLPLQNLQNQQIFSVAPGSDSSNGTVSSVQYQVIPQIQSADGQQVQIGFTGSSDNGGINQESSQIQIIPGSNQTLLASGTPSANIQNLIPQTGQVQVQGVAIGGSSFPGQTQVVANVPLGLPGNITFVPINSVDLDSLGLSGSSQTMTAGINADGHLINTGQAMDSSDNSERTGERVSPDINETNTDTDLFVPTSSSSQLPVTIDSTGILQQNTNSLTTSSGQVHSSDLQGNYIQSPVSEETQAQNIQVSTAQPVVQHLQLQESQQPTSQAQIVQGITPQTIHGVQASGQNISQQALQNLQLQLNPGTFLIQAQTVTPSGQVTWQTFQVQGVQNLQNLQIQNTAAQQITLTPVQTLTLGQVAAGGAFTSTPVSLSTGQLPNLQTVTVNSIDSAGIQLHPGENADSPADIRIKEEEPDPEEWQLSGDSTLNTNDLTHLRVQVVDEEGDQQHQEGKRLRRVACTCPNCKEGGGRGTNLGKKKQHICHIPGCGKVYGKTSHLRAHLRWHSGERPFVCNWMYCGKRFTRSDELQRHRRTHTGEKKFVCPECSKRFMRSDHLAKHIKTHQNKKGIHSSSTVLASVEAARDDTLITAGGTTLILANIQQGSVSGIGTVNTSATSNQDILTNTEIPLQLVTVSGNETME

B1: SP1.2 (dsDNA)
DNA 1: CTGATCGCCCCCACCCCCTTCCTTT
DNA 2: AAAGGAAGGGGGTGGGGGCGATCAG
For the molecule B1, the binding signal was 99.3 % of strongest band.

B2: SP1.4 (dsDNA)
DNA 1: CCCAGGCCCCGCCCTCTCCGCCTCG
DNA 2: CGAGGCGGAGAGGGCGGGGCCTGGG
For the molecule B2, the binding signal was 83.4 % of strongest band.

B3: SP1.3 (dsDNA)
DNA 1: TCCTCCCTCGGCTCCTCCCCCAGGC
DNA 2: GCCTGGGGGAGGAGCCGAGGGAGGA
On to B3, for which the binding signal was 100 % of strongest band.

(Values after publication PMC6290791, “microRNA-29b mediates fibrotic induction of human xylosyltransferase-I in human dermal fibroblasts via the Sp1 pathway”.)
